The series concerns the molecule itself. The experiment in a line: cross-linking; 8 ug protein in PBS at room temperature, 25 mM glutaraldehyde for 5 min, quenched with 0.2 M Tris-HCl pH 7.5; 12.5% SDS-PAGE, Coomassie staining.

B1: sponge NmeGp1Sd protein (Suberites domuncula Group I Nme), recombinant (natural protein, UniProt Q5DIW9 1-151, looked up)
chain: MTTERTYIMIKPDGVQRGLMGDIIKRFEQKGFKMVAMKFMQPSEKLLSEHYADLSKKPFFPGLVKFMATSPVCCMVWEGQGAVATGRQMLGETDPAKSKPGTIRGDFCIHIGRNICHGSDSVESANKEIALWFKPEELVDWTPTEQQWIYE
notes: NmeGp1Sd (formerly Nm23-SD1), Group I Nme / nucleoside diphosphate kinase of the marine sponge Suberites domuncula; cDNA cloned into pET15b (NdeI/BamHI) with primers from the ATG start codon to the stop codon; Cloned downstream of the thrombin site of pET15b; residues of the vector may remain at the N-terminus after cleavage; also called Nm23-SD1; not shown: His6, N-terminal, cleaved
By stoichiometry N is commonly meant the number of molecules, sites or subunits per partner or assembly. For B1, the “stoichiometry N” value was 6.

The record behind these values is article PMC3078890, “Sponge non-metastatic Group I Nme gene/protein - structure and function is conserved from sponges to humans” (BMC Evolutionary Biology, 2011).
